From PMC3795252, “SLP-76 Sterile α Motif (SAM) and Individual H5 α Helix Mediate Oligomer Formation for Microclusters and T-cell Activation*” (The Journal of Biological Chemistry, 2013)
Values joined by “and” are separate entries in the source; they are usually repeats but may differ in a detail not shown here. Equal values may be shown once.

What was measured:
[1] = target: the molecule itself; assay: MST; 10 nM NT-647-labelled protein titrated with the same protein unlabelled (0–90.5 μM, 1:1 dilutions); Monolith NT.115; 25 °C; 10 mM HEPES pH 7.5, 500 mM NaCl, 0.5 mM TCEP, 0.05% Tween 20; constant is of monomer to dimer
[2] = target: the molecule itself; assay: dynamic light scattering; purified SAM domain at rising concentrations; 25 °C; DynaPro; hydrodynamic radius compared with radii estimated by HYDROPRO and GRAMM-X for monomer, dimer and tetramer; dimer from 10–20 μM, tetramer >50 μM

B1: SLP-76 SAM domain (residues 1–78), recombinant, His-tagged (domain or fragment, human, UniProt Q13094 1-78, looked up)
chain: MALRNVPFRSEVLGWDPDSLADYFKKLNYKDCEKAVKKYHIDGARFLNLTENDIQKFPKLRVPILSKLSQEINKNEER
modifications: NT-647 dye coupled to primary amines on the labelled copy used in MST (one label per protein molecule); the titrated copy is unlabelled
notes: SLP-76 (LCP2), human, N-terminal sterile alpha motif (SAM) domain, residues 1-78 (helices H1-H5); Cloned into the NdeI/BamHI sites of pET-20b(+); also called SLP-76 N-terminal SAM domain; H1–5; source: E. coli BL21(DE3), pET-20b(+), soluble fraction purified by Ni2+ column
- Kd [1]: 2500 ± 900 nM
- stoichiometry N [2]: 2 and 4
